Source: US20220332804A1 (CSL INNOVATION, published 2022)

Tests used:
Experiment in all cases: SPR, mAb captured, C2 mutant analyte;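 further: Anti-C2 mAbs captured on goat anti-human IgG Biacore CM5 chips, alanine or serine C2 surface mutants flowed over at 37 °C, double-referenced sensorgrams fitted to a 1:1 binding model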
[1] = target: T1, human C2 V418A (human, UniProt P06681 21-752)
T1 sequence: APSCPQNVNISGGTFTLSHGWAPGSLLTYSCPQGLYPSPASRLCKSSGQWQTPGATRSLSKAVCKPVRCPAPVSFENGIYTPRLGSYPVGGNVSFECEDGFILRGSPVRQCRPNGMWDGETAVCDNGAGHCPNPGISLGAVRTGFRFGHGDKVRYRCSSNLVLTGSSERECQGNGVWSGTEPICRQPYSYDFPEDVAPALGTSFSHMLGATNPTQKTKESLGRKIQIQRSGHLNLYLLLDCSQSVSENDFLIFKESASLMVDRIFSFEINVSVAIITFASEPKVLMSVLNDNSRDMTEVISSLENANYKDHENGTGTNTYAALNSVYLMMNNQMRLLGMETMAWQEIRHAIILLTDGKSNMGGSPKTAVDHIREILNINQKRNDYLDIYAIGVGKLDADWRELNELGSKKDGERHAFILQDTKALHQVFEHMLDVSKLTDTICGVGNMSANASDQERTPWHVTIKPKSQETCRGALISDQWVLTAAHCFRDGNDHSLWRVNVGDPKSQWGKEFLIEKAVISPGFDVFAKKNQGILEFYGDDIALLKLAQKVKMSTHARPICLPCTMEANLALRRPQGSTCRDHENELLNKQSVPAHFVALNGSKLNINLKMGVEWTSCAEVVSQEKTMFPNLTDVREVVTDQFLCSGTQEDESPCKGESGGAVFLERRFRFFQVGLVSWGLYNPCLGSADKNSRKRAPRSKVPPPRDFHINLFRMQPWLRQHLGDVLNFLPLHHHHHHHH

[2] = target: T2, human C2 D419A (human, UniProt P06681 21-752)
T2 sequence: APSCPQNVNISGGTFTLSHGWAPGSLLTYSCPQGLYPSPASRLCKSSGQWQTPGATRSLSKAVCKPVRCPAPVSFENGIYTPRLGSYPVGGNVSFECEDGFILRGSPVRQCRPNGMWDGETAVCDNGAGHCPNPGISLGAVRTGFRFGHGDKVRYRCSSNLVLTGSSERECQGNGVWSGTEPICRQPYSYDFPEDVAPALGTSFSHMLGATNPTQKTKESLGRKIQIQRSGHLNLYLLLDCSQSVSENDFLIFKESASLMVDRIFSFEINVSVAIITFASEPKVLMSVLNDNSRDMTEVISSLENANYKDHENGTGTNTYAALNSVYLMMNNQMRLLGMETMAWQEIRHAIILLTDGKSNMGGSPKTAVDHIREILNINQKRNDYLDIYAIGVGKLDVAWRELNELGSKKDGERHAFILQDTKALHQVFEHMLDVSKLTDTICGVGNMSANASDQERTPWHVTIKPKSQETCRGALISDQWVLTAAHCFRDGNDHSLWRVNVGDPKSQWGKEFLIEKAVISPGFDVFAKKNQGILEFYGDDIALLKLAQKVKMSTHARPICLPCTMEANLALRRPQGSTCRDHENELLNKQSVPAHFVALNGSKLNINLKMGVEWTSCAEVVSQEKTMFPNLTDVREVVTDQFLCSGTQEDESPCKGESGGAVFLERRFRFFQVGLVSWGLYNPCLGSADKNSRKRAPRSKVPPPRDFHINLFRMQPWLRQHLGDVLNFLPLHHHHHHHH

[3] = target: T3, human C2 D441A (human, UniProt P06681 21-752)
T3 sequence: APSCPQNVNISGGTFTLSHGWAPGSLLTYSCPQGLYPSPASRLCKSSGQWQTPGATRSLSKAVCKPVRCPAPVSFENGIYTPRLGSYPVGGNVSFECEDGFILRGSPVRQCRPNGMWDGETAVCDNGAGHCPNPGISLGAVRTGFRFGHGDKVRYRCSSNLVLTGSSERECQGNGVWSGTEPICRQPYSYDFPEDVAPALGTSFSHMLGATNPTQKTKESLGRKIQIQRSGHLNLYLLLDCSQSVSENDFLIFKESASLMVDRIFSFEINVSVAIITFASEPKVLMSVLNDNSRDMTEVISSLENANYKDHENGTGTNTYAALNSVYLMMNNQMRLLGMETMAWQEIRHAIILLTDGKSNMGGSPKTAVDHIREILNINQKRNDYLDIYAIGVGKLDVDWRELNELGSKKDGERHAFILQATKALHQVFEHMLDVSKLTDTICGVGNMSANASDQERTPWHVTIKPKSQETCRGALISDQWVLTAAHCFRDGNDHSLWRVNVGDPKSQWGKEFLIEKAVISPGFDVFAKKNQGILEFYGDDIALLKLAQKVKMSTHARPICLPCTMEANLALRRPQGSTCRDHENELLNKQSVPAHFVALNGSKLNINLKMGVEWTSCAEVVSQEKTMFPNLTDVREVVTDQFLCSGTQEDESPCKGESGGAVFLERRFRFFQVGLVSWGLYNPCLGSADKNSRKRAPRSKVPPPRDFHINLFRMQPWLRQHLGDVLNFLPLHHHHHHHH

[4] = target: T4, human C2 K457A (human, UniProt P06681 21-752)
T4 sequence: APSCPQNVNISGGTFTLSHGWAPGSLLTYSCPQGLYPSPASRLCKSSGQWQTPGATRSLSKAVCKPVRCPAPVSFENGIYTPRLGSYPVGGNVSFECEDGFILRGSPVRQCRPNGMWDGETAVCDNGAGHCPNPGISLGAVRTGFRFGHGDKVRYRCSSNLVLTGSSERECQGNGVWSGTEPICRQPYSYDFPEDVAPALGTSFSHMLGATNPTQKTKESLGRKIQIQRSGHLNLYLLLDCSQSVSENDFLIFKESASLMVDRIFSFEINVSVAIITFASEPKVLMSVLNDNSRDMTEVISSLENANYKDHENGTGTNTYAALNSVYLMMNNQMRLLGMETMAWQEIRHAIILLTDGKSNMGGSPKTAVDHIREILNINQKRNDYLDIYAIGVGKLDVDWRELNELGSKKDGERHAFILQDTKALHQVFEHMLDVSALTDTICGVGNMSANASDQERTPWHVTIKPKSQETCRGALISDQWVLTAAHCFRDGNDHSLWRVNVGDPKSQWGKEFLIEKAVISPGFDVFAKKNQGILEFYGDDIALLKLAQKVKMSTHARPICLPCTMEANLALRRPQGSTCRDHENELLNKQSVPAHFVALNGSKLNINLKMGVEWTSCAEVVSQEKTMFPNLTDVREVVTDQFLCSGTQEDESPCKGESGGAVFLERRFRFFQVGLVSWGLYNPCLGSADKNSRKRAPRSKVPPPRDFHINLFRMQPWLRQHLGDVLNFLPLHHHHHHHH

B1: RF16-214 (antibody, V domains shown)
VH: EVQLLESGGGLVQPGGSLRLSCAASGFTFSWYQMMWVRQAPGKGLEWVSRIYPSGGGTAYADSVKGRFTISRDNSKNTLYLQMNSLRAEDTAVYYCARDAGYGDNWGQGTLVTVSS
VL: QSALTQPPSVSVSPGQTASITCSGDKLGEKYASWYQQKAGQSPVMVIYQDRKRPSGIPERFSGSNSGNTATLTISGTQAMDEADYYCQAWDTRAVVFGGGTKLTVLG
Q: What does the source list for B1?
A: Kd [1]: 15.6 nM; Kd [2]: 70.7 nM; Kd [3]: 51.5 nM; Kd [4]: 41.8 nM
